Experimental data from patent publication US20090099029.

T1: Bovine, dephosphorylated, Myelin Basic Protein (MBP), P02687
T1 chain: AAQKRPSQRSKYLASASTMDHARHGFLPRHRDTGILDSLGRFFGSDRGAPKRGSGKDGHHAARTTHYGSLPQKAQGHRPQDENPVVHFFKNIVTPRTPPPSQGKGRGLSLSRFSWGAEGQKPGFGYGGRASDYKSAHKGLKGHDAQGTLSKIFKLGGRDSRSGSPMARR

B1: DAPK3(ZIPK) (protein)
chain: MSTFRQEDVEDHYEMGEELGSGQFAIVRKCRQKGTGKEYAAKFIKKRRLSSSRRGVSREEIEREVNILREIRHPNIITLHDIFENKTDVVLILELVSGGELFDFLAEKESLTEDEATQFLKQILDGVHYLHSKRIAHFDLKPENIMLLDKNVPNPRIKLIDFGIAHKIEAGNEFKNIFGTPEFVAPEIVNYEPLGLEADMWSIGVITYILLSGASPFLGETKQETLTNISAVNYDFDEEYFSNTSELAKDFIRRLLVKDPKRRMTIAQSLEHSWIKAIRRRNVRGEDSGRKPERRRLKTTRLKEYTIKSHSSLPPNNSYADFERFSKVLEEAAAAEEGLRELQRSRRLCHEDVEALAAIYEEKEAWYREESDSLGQDLRRLRQELLKTEALKRQAQEEAKGALLGTSGLKRRFSRLENRYEALAKQVASEMRFVQDLVRALEQEKLQGVECGLR
B2: EPHA2 (protein)
chain: HRRRKNQRARQSPEDVYFSKSEQLKPLKTYVDPHTYEDPNQAVLKFTTEIHPSCVTRQKVIGAGEFGEVYKGMLKTSSGKKEVPVAIKTLKAGYTEKQRVDFLGEAGIMGQFSHHNIIRLEGVISKYKPMMIITEYMENGALDKFLREKDGEFSVLQLVGMLRGIAAGMKYLANMNYVHRDLAARNILVNSNLVCKVSDFGLSRVLEDDPEATYTTSGGKIPIRWTAPEAISYRKFTSASDVWSFGIVMWEVMTYGERPYWELSNHEVMKAINDGFRLPTPMDCPSAIYQLMMQCWQQERARRPKFADIVSILDKLIRAPDSLKTLADFDPRVSIRLPSTSGSEGVPFRTVSEWLESIKMQQYTEHFMAAGYTAIEKVVQMTNDDIKRIGVRLPGHQKRIAYSLLGLKDQVNTVGIPI
B3: CSNK1E(CK1eps) (protein)
chain: MELRVGNKYRLGRKIGSGSFGDIYLGANIASGEEVAIKLECVKTKHPQLHIESKFYKMMQGGVGIPSIKWCGAEGDYNVMVMELLGPSLEDLFNFCSRKFSLKTVLLLADQMISRIEYIHSKNFIHRDVKPDNFLMGLGKKGNLVYIIDFGLAKKYRDARTHQHIPYRENKNLTGTARYASINTHLGIEQSRRDDLESLGYVLMYFNLGSLPWQGLKAATKRQKYERISEKKMSTPIEVLCKGYPSEFSTYLNFCRSLRFDDKPDYSYLRQLFRNLFHRQGFSYDYVFDWNMLKFGAARNPEDVDRERREHEREERMGQLRGSATRALPPGPPTGATANRLRSAAEPVASTPASRIQPAGNTSPRAISRVDRERKVSMRLHRGAPANVSSSDLTGRQEVSRIPASQTSVPFDHLGK
B4: CSNK2A2 (protein)
chain: MPGPAAGSRARVYAEVNSLRSREYWDYEAHVPSWGNQDDYQLVRKLGRGKYSEVFEAINITNNERVVVKILKPVKKKKIKREVKILENLRGGTNIIKLIDTVKDPVSKTPALVFEYINNTDFKQLYQILTDFDIRFYMYELLKALDYCHSKGIMHRDVKPHNVMIDHQQKKLRLIDWGLAEFYHPAQEYNVRVASRYFKGPELLVDYQMYDYSLDMWSLGCMLASMIFRREPFFHGQDNYDQLVRIAKVLGTEELYGYLKKYHIDLDPHFNDILGQHSRKRWENFIHSENRHLVSPEALDLLDKLLRYDHQQRLTAKEAMEHPYFYPVVKEQSQPCADNAVLSSGLTAAR
B5: AKT3 (protein)
chain: MSDVTIVKEGWVQKRGEYIKNWRPRYFLLKTDGSFIGYKEKPQDVDLPYPLNNFSVAKCQLMKTERPKPNTFIIRCLQWTTVIERTFHVDTPEEREEWTEAIQAVADRLQRQEEERMNCSPTSQIDNIGEEEMDASTTHHKRKTMNDFDYLKLLGKGTFGKVILVREKASGKYYAMKILKKEVIIAKDEVAHTLTESRVLKNTRHPFLTSLKYSFQTKDRLCFVMEYVNGGELFFHLSRERVFSEDRTRFYGAEIVSALDYLHSGKIVYRDLKLENLMLDKDGHIKITDFGLCKEGITDAATMKTFCGTPEYLAPEVLEDNDYGRAVDWWGLGVVMYEMMCGRLPFYNQDHEKLFELILMEDIKFPRTLSSDAKSLLSGLLIKDPNKRLGGGPDDAKEIMRHSFFSGVNWQDVYDKKLVPPFKPQVTSETDTRYFDEEFTAQTITITPPEKYDEDGMDCMDNERRPHFPQFSYSASGRE
B6: EPHA3 (protein)
chain: RFCGYKSKHGADEKRLHFGNGHLKLPGLRTYVDPHTYEDPTQAVHEFAKELDATNISIDKVVGAGEFGEVCSGRLKLPSKKEISVAIKTLKVGYTEKQRRDFLGEASIMGQFDHPNIIRLEGVVTKSKPVMIVTEYMENGSLDSFLRKHDAQFTVIQLVGMLRGIASGMKYLSDMGYVHRDLAARNILINSNLVCKVSDFGLSRVLEDDPEAAYTTRGGKIPIRWTSPEAIAYRKFTSASDVWSYGIVLWEVMSYGERPYWEMSNQDVIKAVDEGYRLPPPMDCPAALYQLMLDCWQKDRNNRPKFEQIVSILDKLIRNPGSLKIITSAAARPSNLLLDQSNVDITTFRTTGDWLNGVWTAHCKEIFTGVEYSSCDTIAKISTDDMKKVGVTVVGPQKKIISSIKALETQSKNGPVPV
B7: AKT2 (protein)
chain: MNEVSVIKEGWLHKRGEYIKTWRPRYFLLKSDGSFIGYKERPEAPDQTLPPLNNFSVAECQLMKTERPRPNTFVIRCLQWTTVIERTFHVDSPDEREEWMRAIQMVANSLKQRAPGEDPMDYKCGSPSDSSTTEEMEVAVSKARAKVTMNDFDYLKLLGKGTFGKVILVREKATGRYYAMKILRKEVIIAKDEVAHTVTESRVLQNTRHPFLTALKYAFQTHDRLCFVMEYANGGELFFHLSRERVFTEERARFYGAEIVSALEYLHSRDVVYRDIKLENLMLDKDGHIKITDFGLCKEGISDGATMKTFCGTPEYLAPEVLEDNDYGRAVDWWGLGVVMYEMMCGRLPFYNQDHERLFELILMEEIRFPRTLSPEAKSLLAGLLKKDPKQRLGGGPSDAKEVMEHRFFLSINWQDVVQKKLLPPFKPQVTSEVDTRYFDDEFTAQSITITPPDRYDSLGLLELDQRTHFPQFSYSASIRE
B8: CSNK1D(CK1delta) (protein)
chain: MELRVGNRYRLGRKIGSGSFGDIYLGTDIAAGEEVAIKLECVKTKHPQLHIESKIYKMMQGGVGIPTIRWCGAEGDYNVMVMELLGPSLEDLFNFCSRKFSLKTVLLLADQMISRIEYIHSKNFIHRDVKPDNFLMGLGKKGNLVYIIDFGLAKKYRDARTHQHIPYRENKNLTGTARYASINTHLGIEQSRRDDLESLGYVLMYFNLGSLPWQGLKAATKRQKYERISEKKMSTPIEVLCKGYPSEFATYLNFCRSLRFDDKPDYSYLRQLFRNLFHRQGFSYDYVFDWNMLKFGASRAADDAERERRDREERLRHSRNPATRGLPSTASGRLRGTQEVAPPTPLTPTSHTANTSPRPVSGMERERKVSMRLHRGAPVNISSSDLTGRQDTSRMSTSQNSIPFEHHGK
B9: CSNK2A1(CK2alpha1) (protein)
chain: MSGPVPSRARVYTDVNTHRPREYWDYESHVVEWGNQDDYQLVRKLGRGKYSEVFEAINITNNEKVVVKILKPVKKKKIKREIKILENLRGGPNIITLADIVKDPVSRTPALVFEHVNNTDFKQLYQTLTDYDIRFYMYEILKALDYCHSMGIMHRDVKPHNVMIDHEHRKLRLIDWGLAEFYHPGQEYNVRVASRYFKGPELLVDYQMYDYSLDMWSLGCMLASMIFRKEPFFHGHDNYDQLVRIAKVLGTEDLYDYIDKYNIELDPRFNDILGRHSRKRWERFVHSENQHLVSPEALDFLDKLLRYDHQSRLTAREAMEHPYFYTVVKDQARMGSSSMPGGSTPVSSANMMSGISSVPTPSPLGPLAGSPVIAAANPLGMPVPAAAGAQQ
B10: DAPK2 (protein)
chain: MFQASMRSPNMEPFKQQKVEDFYDIGEELGSGQFAIVKKCREKSTGLEYAAKFIKKRQSRASRRGVSREEIEREVSILRQVLHHNVITLHDVYENRTDVVLILELVSGGELFDFLAQKESLSEEEATSFIKQILDGVNYLHTKKIAHFDLKPENIMLLDKNIPIPHIKLIDFGLAHEIEDGVEFKNIFGTPEFVAPEIVNYEPLGLEADMWSIGVITYILLSGASPFLGDTKQETLANITAVSYDFDEEFFSQTSELAKDFIRKLLVKETRKRLTIQEALRHPWITPVDNQQAMVRRESVVNLENFRKQYVRRRWKLSFSIVSLCNHLTRSLMKKVHLRPDEDLRNCESDTEEDIARRKALHPRRRSSTS
B11: CHEK1 (protein)
chain: MAVPFVEDWDLVQTLGEGAYGEVQLAVNRVTEEAVAVKIVDMKRAVDCPENIKKEICINKMLNHENVVKFYGHRREGNIQYLFLEYCSGGELFDRIEPDIGMPEPDAQRFFHQLMAGVVYLHGIGITHRDIKPENLLLDERDNLKISDFGLATVFRYNNRERLLNKMCGTLPYVAPELLKRREFHAEPVDVWSCGIVLTAMLAGELPWDQPSDSCQEYSDWKEKKTYLNPWKKIDSAPLALLHKILVENPSARITIPDIKKDRWYNKPLKKGAKRPRVTSGGVSESPSGFSKHIQSNLDFSPVNSASSEENVKYSSSQPEPRTGLSLWDTSPSYIDKLVQGISFSQPTCPDHMLLNSQLLGTPGSSQNPWQRLVKRMTRFFTKLDADKSYQCLKETCEKLGYQWKKSCMNQVTISTTDRRNNKLIFKVNLLEMDDKILVDFRLSKGDGLEFKRHFLKIKGKLIDIVSSQKIWLPAT
B12: STK6(AuroraA) (protein)
chain: MDRSKENCISGPVKATAPVGGPKRVLVTQQFPCQNPLPVNSGQAQRVLCPSNSSQRIPLQAQKLVSSHKPVQNQKQKQLQATSVPHPVSRPLNNTQKSKQPLPSAPENNPEEELASKQKNEESKKRQWALEDFEIGRPLGKGKFGNVYLAREKQSKFILALKVLFKAQLEKAGVEHQLRREVEIQSHLRHPNILRLYGYFHDATRVYLILEYAPLGTVYRELQKLSKFDEQRTATYITELANALSYCHSKRVIHRDIKPENLLLGSAGELKIADFGWSVHAPSSRRTTLCGTLDYLPPEMIEGRMHDEKVDLWSLGVLCYEFLVGKPPFEANTYQETYKRISRVEFTFPDFVTEGARDLISRLLKHNPSQRPMLREVLEHPWITANSSKPSNCQNKESASKQS

Target: T1, Bovine, dephosphorylated, Myelin Basic …

Protein	MBP Kinase Activity
B1	Negative
B2	Weak
B3	Negative
B4	Negative
B5	Strong
B6	Strong
B7	Strong
B8	Negative
B9	Strong
B10	Negative
B11	Strong
B12	Weak
